{
  "source": "paper doi:10.1101/2021.03.23.436578",
  "about": "(bioRxiv, 2021)",
  "proteins": {"B1": {"name": "Cavin1 (1-190) (domain or fragment, UniProt O54724 1-190, looked up)", "chain": "MEDVTLHIVERPYSGFPDASSEGPEPTQGEARATEEPSGTGSDELIKSDQVNGVLVLSLLDKIIGAVDQIQLTQAQLEERQAEMEGAVQSIQGELSKLGKAHATTSNTVSKLLEKVRKVSVNVKTVRGSLERQAGQIKKLEVNEAELLRRRNFKVMIYQDEVKLPAKLSVSKSLKESEALPEKEGDELGE"}},
  "target": "the molecule itself",
  "assay": "mass photometry",
  "data": [
    {"protein": "B1", "values": [
      {"measurement": "stoichiometry N", "value": 3}
    ]}
  ]
}
